The test deals with T1, extracellular domain of human BMP receptor type IA (BMPR-IAEC), wild type (human, UniProt P36894).
T1 construct: numbers count on: the mature protein; In the crystal only Pro34-Val118 were traced; also called BMPR-IA WT; BMPR-IA ectodomain; source: expressed as thioredoxin-fusion protein as described [16], purified
The experiment in a line: SPR; Biacore 2000, room temperature; biotinylated BMP-2 and Fabs immobilised on a streptavidin-coated CM5 chip; wildtype or mutant BMPR-IAEC as analyte at 1000, 500, 250, 125, 62.5 nM; HBS500 (10 mM HEPES, 500 mM NaCl pH 7.4, 3.4 mM EDTA, 0.005% surfactant P20), 10 µl/min; 1:1 Langmuir model; apparent KD from equilibrium binding and/or kon and koff. The following applies: both partners purified. (In general: In SPR one partner is held on a chip, and binding of the other changes the refractive index at the surface.)

T1 sequence (P36894 24-152): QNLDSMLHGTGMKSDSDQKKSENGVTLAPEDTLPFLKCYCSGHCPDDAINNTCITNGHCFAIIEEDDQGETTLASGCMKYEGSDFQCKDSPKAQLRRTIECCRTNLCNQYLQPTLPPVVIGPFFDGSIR

B1: Fab AbD1556 (Fab, V domains shown)
VH: QVQLVESGGGLVQPGGSLRLSCAASGFTFSNYTLNWVRQAPGKGLEWVSYTSSSGSLTGYADSVKGRFTISRDNSKNTLYLQMNSLRAEDTAVYYCARERWHVRGYFDHWGQGTLVTVSS
VL: DIELTQPPSVSVAPGQTARISCSGDSLGSKYVIWYQQKPGQAPVLVIYDDSNRPSGIPERFSGSNSGNTATLTISGTQAEDEADYYCSTFTMSGNGTVFGGGTKLTVL
notes: heavy chain of Fab AbD1556 (Gln1 to Phe224, then the Strep-Tag); light chain of Fab AbD1556 (Asp1 to Ala213); Human Fab of the HuCal library; Not biotinylated in the crystal; some residues of PDB 3NH7 are not modelled; source: obtained from AbD-Serotech (Martinsried), recombinant Fab selected from the HuCal phage library
What is called koff is the rate constant with which the complex falls apart. The term kon denotes the rate constant with which the complex forms. Take B1: the Kd was 20 nM, the koff turned out to be 0.0017 s⁻¹ and the kon was determined as 88000 M⁻¹ s⁻¹.

Source of the values: PMC2946932 (PLoS ONE, 2010).
